The values that follow come from patent publication US20220118063A1.

This assay has as its target FVIII (B region deleted), purchased from American Pharma Wholesale (human) (UniProt P00451). The assay is described as follows: cell-based or functional assay.
Sequence of UniProt P00451 (P00451 other isoform, or with tags, fused parts or gaps, chain 1 of 2): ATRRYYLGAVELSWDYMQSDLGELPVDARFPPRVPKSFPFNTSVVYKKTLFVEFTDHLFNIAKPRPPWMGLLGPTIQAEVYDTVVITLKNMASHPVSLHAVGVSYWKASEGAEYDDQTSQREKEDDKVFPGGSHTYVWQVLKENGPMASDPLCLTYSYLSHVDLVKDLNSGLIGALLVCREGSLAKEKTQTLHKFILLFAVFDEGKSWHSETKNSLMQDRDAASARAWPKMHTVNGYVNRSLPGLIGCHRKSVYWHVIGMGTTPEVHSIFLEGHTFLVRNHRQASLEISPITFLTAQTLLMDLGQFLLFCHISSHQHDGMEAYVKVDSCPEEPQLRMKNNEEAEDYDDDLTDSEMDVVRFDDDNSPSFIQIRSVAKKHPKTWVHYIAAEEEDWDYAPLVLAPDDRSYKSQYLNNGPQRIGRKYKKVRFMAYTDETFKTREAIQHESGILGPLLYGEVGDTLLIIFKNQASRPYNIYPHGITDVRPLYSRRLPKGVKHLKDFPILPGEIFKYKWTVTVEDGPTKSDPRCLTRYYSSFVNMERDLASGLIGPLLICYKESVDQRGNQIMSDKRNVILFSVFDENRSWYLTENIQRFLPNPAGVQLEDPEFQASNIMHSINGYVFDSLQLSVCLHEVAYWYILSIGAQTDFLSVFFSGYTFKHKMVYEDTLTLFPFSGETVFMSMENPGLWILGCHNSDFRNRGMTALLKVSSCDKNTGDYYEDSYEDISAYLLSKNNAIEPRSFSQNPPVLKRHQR
Sequence of UniProt P00451 (P00451 1668-2351, stated change not applied, chain 2 of 2): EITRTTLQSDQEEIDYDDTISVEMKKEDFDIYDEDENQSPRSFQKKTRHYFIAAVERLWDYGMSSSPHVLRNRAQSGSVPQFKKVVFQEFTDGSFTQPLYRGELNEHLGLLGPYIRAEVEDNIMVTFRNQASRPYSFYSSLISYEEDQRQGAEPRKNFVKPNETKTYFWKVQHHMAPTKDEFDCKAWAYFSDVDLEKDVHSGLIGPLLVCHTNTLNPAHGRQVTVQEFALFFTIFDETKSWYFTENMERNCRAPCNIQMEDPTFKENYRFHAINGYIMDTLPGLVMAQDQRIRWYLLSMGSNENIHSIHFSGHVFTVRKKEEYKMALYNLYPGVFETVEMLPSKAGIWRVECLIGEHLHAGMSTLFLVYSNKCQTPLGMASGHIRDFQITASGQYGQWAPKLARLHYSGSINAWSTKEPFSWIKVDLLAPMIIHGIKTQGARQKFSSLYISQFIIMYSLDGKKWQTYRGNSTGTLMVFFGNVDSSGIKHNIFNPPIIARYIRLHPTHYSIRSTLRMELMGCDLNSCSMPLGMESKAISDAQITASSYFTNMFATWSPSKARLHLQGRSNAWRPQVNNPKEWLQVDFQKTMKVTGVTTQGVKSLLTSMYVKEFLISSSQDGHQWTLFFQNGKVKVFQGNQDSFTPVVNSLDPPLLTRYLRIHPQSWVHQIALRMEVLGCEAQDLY

“CM110 (expressed from plasmid pCM110RMHM: D′D3 region of human von Willebrand Factor with cys1099 and cys1142 changed to alanine, 56 amino acid glycine serine rich linker, full length human albumin, no His tag) (from UniProt P04275 764-1247)”: the fold decrease in specific activity of CM211 in the APTT against the Coatest assay was determined as 6.5 fold.
